Test results reported in paper PMC7597377 (Science signaling, 2020).
Read-outs that look alike come from different tables or passages of the source.

Columns and labels:
Test in all cases: FRET or BRET
[1] = biological target: T1, ERα ligand-binding domain, wild type (ERα-LBD-biotin) (human, biotin)
[2] = biological target: T2, ERα ligand-binding domain Q375K (ERα-LBD-biotin) (human, biotin)
[3] = biological target: T3, ERα ligand-binding domain Q375E (ERα-LBD-biotin) (human, biotin)
[4] = biological target: T4, ERα ligand-binding domain Q375A (ERα-LBD-biotin) (human, biotin)
[5] = biological target: T1, ERα ligand-binding domain, wild type …; remark: listed apart in the source
[6] = biological target: T2, ERα ligand-binding domain Q375K …; remark: listed apart in the source
[7] = biological target: T3, ERα ligand-binding domain Q375E …; remark: listed apart in the source
[8] = biological target: T4, ERα ligand-binding domain Q375A …; remark: listed apart in the source
[9] = biological target: T1, ERα ligand-binding domain, wild type …; remark: listed apart in the source
[10] = biological target: T2, ERα ligand-binding domain Q375K …; remark: listed apart in the source
[11] = biological target: T3, ERα ligand-binding domain Q375E …; remark: listed apart in the source
[12] = biological target: T4, ERα ligand-binding domain Q375A …; remark: listed apart in the source
[13] = biological target: T1, ERα ligand-binding domain, wild type …; remark: listed apart in the source
[14] = biological target: T2, ERα ligand-binding domain Q375K …; remark: listed apart in the source
[15] = biological target: T3, ERα ligand-binding domain Q375E …; remark: listed apart in the source
[16] = biological target: T4, ERα ligand-binding domain Q375A …; remark: listed apart in the source
[17] = biological target: T1, ERα ligand-binding domain, wild type …; remark: listed apart in the source
[18] = biological target: T2, ERα ligand-binding domain Q375K …; remark: listed apart in the source
[19] = biological target: T3, ERα ligand-binding domain Q375E …; remark: listed apart in the source
[20] = biological target: T4, ERα ligand-binding domain Q375A …; remark: listed apart in the source
[21] = biological target: T1, ERα ligand-binding domain, wild type …; remark: listed apart in the source
[22] = biological target: T2, ERα ligand-binding domain Q375K …; remark: listed apart in the source
[23] = biological target: T3, ERα ligand-binding domain Q375E …; remark: listed apart in the source
[24] = biological target: T4, ERα ligand-binding domain Q375A …; remark: listed apart in the source

B1: SRC1 NR interaction domain (ca. 200 amino acids), FRET acceptor-labeled (domain or fragment)
chain: PSRLNIQPAKAESKDNKEIASILNEMIQSDNSSSDGKPLDSGLLHNNDRLSDGDSKYSQTSHKLVQLLTTTAEQQLRHADIDTSCKDVLSCTGTSNSASANSSGGSCPSSHSSLTERHKILHRLLQEGSPSDITTLSVEPDKKDSASTSVSVTGQVQGNSSIKLELDASKKKESKDHQLLRYLLDKDEKDLRSTPNLSLDDVKVKVEKKEQ
modifications: FRET acceptor label (not named)
Kd [1]: 6.4 nM
Kd [2]: 2.1 nM
fold reduction in SRC1 binding vs WT ER (Kd mutant/Kd WT) [3]: 3.4 fold
fold reduction in SRC1 binding vs WT ER (Kd mutant/Kd WT) [4]: 8 fold
Kd [5]: 3 nM
Kd [6]: 1.6 nM
fold reduction in SRC1 binding vs WT ER (Kd mutant/Kd WT) [7]: 8.7 fold
fold reduction in SRC1 binding vs WT ER (Kd mutant/Kd WT) [8]: 16 fold
Kd [9]: 6.8 nM
Kd [10]: 2.2 nM
fold reduction in SRC1 binding vs WT ER (Kd mutant/Kd WT) [11]: 2.8 fold
fold reduction in SRC1 binding vs WT ER (Kd mutant/Kd WT) [12]: 8.8 fold
Kd [13]: 3.5 nM
Kd [14]: 1.5 nM
fold reduction in SRC1 binding vs WT ER (Kd mutant/Kd WT) [15]: 7.4 fold
fold reduction in SRC1 binding vs WT ER (Kd mutant/Kd WT) [16]: 21 fold
fold increase in SRC1 binding with ligand vs E2 (Kd E2/Kd compound) [17]: 0.3 fold
fold increase in SRC1 binding with ligand vs E2 (Kd E2/Kd compound) [18]: 0.16 fold
fold reduction in SRC1 binding vs WT ER (Kd mutant/Kd WT) [18]: 0.62 fold
fold reduction in SRC1 binding vs WT ER (Kd mutant/Kd WT) [19]: 4.2 fold
fold reduction in SRC1 binding vs WT ER (Kd mutant/Kd WT) [20]: 5.5 fold
Kd [21]: 3.4 nM
Kd [22]: 1.7 nM
fold reduction in SRC1 binding vs WT ER (Kd mutant/Kd WT) [23]: 11 fold
fold reduction in SRC1 binding vs WT ER (Kd mutant/Kd WT) [24]: 17 fold
